Five molecules from patent US20100183617A1 (UNIVERSITY OF VIRGINIA PATENT FOUNDATION, published 2010) can be followed below.

The chains are these.
T1: purified recombinant mouse SAS1R (mature, 414 residues), His-tagged, expressed in E. coli (mouse, UniProt Q6HA09 24-435)
T1 construct: Purified from the insoluble fraction in 8 M urea on a Ni column; The preparation also holds a ˜25 kD C-terminal fragment; ZEP is the earlier name of SAS1R; also called rSAS1R; rec SAS1R; not shown: twenty vector-encoded (pET-28b(+)) amino acids including a six histidine tag at the N-terminus; ten vector-encoded amino acids including a six histidine tag at the C-terminus
T1 sequence: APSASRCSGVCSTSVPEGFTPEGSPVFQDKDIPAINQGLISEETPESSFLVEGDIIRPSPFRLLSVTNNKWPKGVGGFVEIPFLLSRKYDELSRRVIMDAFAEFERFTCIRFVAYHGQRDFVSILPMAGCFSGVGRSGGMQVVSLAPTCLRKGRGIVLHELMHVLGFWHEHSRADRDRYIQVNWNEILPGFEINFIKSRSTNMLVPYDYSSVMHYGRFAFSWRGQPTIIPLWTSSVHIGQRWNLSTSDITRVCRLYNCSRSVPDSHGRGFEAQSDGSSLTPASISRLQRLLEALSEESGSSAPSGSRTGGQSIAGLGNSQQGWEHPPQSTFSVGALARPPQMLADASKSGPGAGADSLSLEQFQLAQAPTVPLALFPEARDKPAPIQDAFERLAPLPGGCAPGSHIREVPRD

T2: in vitro translated 35S-methionine labeled full length SAS1R with N-terminal c-Myc tag (mouse, UniProt Q6HA09 24-435, 35S-methionine labeled)
T2 construct: ˜50 kD; also called SAS1R full length (F); F-SAS1R full length
T2 sequence: T1 sequence

B1: in vitro translated 35S-methionine labeled SAS1R N-terminus (121 residues) with N-terminal c-Myc tag (receptor, not shown: small tags and cut ends)
chain: MGAPSASRCSGVCSTSVPEGFTPEGSPVFQDKDIPAINQGLISEETPESSFLVEGDIIRPSPFRLLSVTNNKWPKGVGGFVEIPFLLSRKYDELSRRVIMDAFAEFERFTCIRFVAYHGQR
modifications: 35S-methionine labeled
notes: ˜21 kD; also called N-terminus (N); N-SAS1R N-terminus
B2: human Lamin C (negative control construct of the two-hybrid system) (other)
chain: SEEVVSREVSGIKAAYEAELGDARKTLDSVAKERARLQLELSKVREEFKELKARNTKKEGDLIAAQARLKDLEALLNSKEAALSTALSEKRTLEGELHDLRGQVAKLEAALGEAKKQLQDEMLRRVDAENRLQTMKEELDFQKNIYSEELRETKRRHETRLVEID
B3: native mouse SLLP1 of sperm (acrosomal, ˜15 kDa form) (ligand)
chain: KVFSRCELAKEMHDFGLDGYRGYNLADWVCLAYYTSGFNTNAVDHEADGSTNNGIFQISSRRWCRTLASNGPNLCRIYCTDLLNNDLKDSIVCAMKIVQEPLGLGYWEAWRHHCQGRDLSDWVDGCDF
notes: Only a ˜15 kDa form is found in sperm extracts; The predicted processed form is residues 94-221 (cleavage between A93 and K94 is only predicted); On sperm or in sperm extracts; also called native SLLP1; native mSLLP1
B4: in vitro translated 35S-methionine labeled mature mouse SLLP1 (128 residues) with N-terminal HA tag (ligand, not shown: small tags and cut ends)
chain: B3 chain
modifications: 35S-methionine labeled
notes: ˜16 kD; also called SLLP1 (S); S-SLLP1
B5: purified soluble recombinant mouse SLLP1 (mature form, residues 94-221), His-tagged, expressed in E. coli (ligand)
chain: B3 chain
notes: also called rSLLP1; rec SLLP1; not shown: two vector-encoded residues at the N-terminus and eight at the C-terminus including the six-histidine tag (pET28b+)

Assay [1] has as its target B4. Kind of assay: co-IP of in vitro translated 35S-labeled proteins, anti-Myc beads.
Description: (§1) High affinity anti-c-Myc and anti-HA monoclonal antibodies coupled to agarose beads were employed to immunoprecipitate proteins (IP) and their radiolabeled putative interacting partners (Co-IP) using the Profound c-Myc/HA Tag IP/Co-IP system (Pierce, Ill.). For Co-IP reactions, the specific TNT products, ranging from 7-23 μl were gently mixed and kept at 4° C. for 1 h. Simultaneously the anti-c-Myc and anti-HA antibody beads were incubated with 5% milk in PBST (phosphate buffer saline with 0.05% Tween 20) for 1 h at 4° C. in Handy spin columns (Pierce, Ill.) with gentle end-over-end mixing to prevent loss of beads during the subsequent steps. Following blocking, the antibody beads were incubated with IP or Co-IP samples overnight at 4° C. in Handee spin columns with gentle end-over-end mixing. The beads were then precipitated and washed 3 times in 500 μl of PBST at 4000×g for 10 sec with 3 gentle mixes during each wash. The IP and co-IP products were then recovered from the beads in 23 μl of 2× non-reducing sample buffer, heated at 99° C. for 5 min, centrifuged, and mixed with 2 μl of β-mercaptoethanol, and 20 μl of this mixture was loaded per lane for SDS-PAGE analysis using Criterion gels (Bio-Rad, CA). After electrophoresis, the gels were fixed, air dried, exposed to phosphor screens, and imaged as described above for analysis of TNT products. […]
Assay [2] deals with T3, SV40 large T-antigen (control construct of the two-hybrid system; HA-tagged when translated in vitro) (SV40, UniProt P03070 86-708).
T3 construct: Control used both in the Y2H assay and in the co-IP (HA tag); also called T-antigen (T)
Kind of assay: yeast two-hybrid, high stringency plate.

The target of assay [3] is T1, purified recombinant mouse SAS1R …. Briefly: co-localization by immunofluorescence, capacitated sperm incubated with rSAS1R.
Assay [4] has as its target T2, in vitro translated 35S-methionine …. Kind of assay: co-IP of in vitro translated 35S-labeled proteins, anti-Myc beads.
Description: as §1
The target of assay [5] is T1, purified recombinant mouse SAS1R …. Kind of assay: far-western overlay.
Description: Before protein overlay, the strips were incubated with blocking buffer for 1 h. […] After washing in PBST (×4), the strips were probed with goat anti-mouse HRP secondary antibody in blocking buffer for 1 h, washed in PBST (×4) followed by PBS (×1), and developed with TMB.

T3 sequence (P03070 86-708 limits assumed): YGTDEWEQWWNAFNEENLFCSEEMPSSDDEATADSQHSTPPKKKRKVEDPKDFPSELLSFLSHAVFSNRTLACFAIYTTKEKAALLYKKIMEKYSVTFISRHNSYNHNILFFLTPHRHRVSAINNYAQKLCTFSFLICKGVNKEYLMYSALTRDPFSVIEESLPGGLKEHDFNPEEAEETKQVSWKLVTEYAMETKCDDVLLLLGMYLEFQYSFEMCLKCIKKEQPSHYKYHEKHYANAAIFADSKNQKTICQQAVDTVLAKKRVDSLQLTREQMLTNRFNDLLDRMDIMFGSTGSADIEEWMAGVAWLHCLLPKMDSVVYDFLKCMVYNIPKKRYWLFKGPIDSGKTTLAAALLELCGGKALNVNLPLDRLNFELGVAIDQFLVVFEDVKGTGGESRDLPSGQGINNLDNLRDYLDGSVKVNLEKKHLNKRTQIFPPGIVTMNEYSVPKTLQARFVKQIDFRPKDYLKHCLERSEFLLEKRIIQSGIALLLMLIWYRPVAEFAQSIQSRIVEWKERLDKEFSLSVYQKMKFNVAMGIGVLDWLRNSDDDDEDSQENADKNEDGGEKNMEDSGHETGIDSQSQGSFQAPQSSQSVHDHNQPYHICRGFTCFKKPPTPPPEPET

B1: the binding result in assay [1] is listed as “binds”.

Consider B2, for which the binding result in assay [2] is on record as “no binding”.

Take B3: the binding result in assay [3] is on record as “binds”.

As to B4, in assay [4], the binding result is recorded as “binds”.

B5: the binding result in assay [5] is on record as “binds”.
